Test results reported in paper PMC3660568.

Experiments:
[1] = molecular target: anti-HER2 IgG1 heavy chain (biosimilar Herceptin); test: non-reducing SDS-PAGE with western blot; crude supernatant of stably transfected CHO DG44 pools at the end of culture, non-reducing conditions; detected with anti-human IgG Fc and anti-human kappa LC antibodies; species assigned by molecular weight
[2] = molecular target: anti-HER2 IgG1 light chain (biosimilar Herceptin); test: as above

## anti-HER2 IgG1 heavy chain (biosimilar Herceptin)
[1]
  stoichiometry N: 2

## anti-HER2 IgG1 light chain (biosimilar Herceptin)
[2]
  stoichiometry N: 2
